# Laboratory results from US20140271457A1 (AbbVie / Abbott, published 2014).
# Target: Recombinant Human IL-13 (human, UniProt P35225 35-146, limits assumed)
# Assay: Biacore SPR
# How it was run: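 Antibodies or DVD-Ig captured on anti-mouse IgG (Fcγ) CM5 surface, SPR at 25 °C in HBS-EP+. Antigen at 0.8–100 nM, 50 μl/min; association 5 min, dissociation 10 min. kon and koff came from a global 1:1 fit with local Rmax.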
# Target sequence in this assay (P35225 35-146 limits assumed): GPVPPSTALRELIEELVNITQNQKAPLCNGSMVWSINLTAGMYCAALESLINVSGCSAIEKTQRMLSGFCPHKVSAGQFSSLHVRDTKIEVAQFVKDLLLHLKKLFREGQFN
Kd,koff,kon,Binder
0.039 nM,5.4e-05 s⁻¹,1.4e+06 M⁻¹ s⁻¹,"DVD3159 (bispecific antibody, IgG1, DVD-Ig; wt hIgG1 + kappa constants) VH: EVQLVQSGAEVKKPGASVKVSCKASGYTFTSYWMHWVRQAPGQGLEWIGNINPKGGSNIYNEKFQGRVTMTRDTSISTAYMELSRLRSDDTAVYYCARLDYFGDSFDLWGQGTTVTVSSASTKGPEVQLVESGGGLVQPGGSLRLSCAASGFTFSNYGVEWVRQAPGKGLEWVSGIWADGSTHYADTVKSRFTISRDNSKNTLYLQMNSLRAEDTAVYYCAREWQHGPVAYWGQGTLVTVSS VL: DIQMTQSPSSLSASVGDRVTITCRASQGIRNYLNWYQQKPGKAPKLLIYYASNLEVGVPSRFSGSGSGTDYTLTISSLQPEDFATYYCQQDNRFPYTFGGGTKVEIKRTVAAPDIQMTQSPSSLSASVGDRVTITCKASQLVSSAVAWYQQKPGKAPKLLIYWASTLHTGVPSRFSGSGSGTDFTLTISSLQPEDFATYYCQQHYRTPFTFGQGTKLEIKR"
0.24 nM,4.6e-05 s⁻¹,190000 M⁻¹ s⁻¹,"DVD3146 (bispecific antibody, IgG1, DVD-Ig; wt hIgG1 + kappa constants) VH: EVQLVESGGGLVQPGGSLRLSCAASGFTFSNYGVTWVRQAPGKGLEWVSMIWADGSTHYASSVKGRFTISRDNSKNTLYLQMNSLRAEDTAVYYCAREWQHGPVAYWGQGTLVTVSSASTKGPEVQLVQSGAEVKKPGASVKVSCKASGYTFTSYWMHWVRQAPGQGLEWIGNINPKGGSNIYNEKFQGRVTMTRDTSISTAYMELSRLRSDDTAVYYCARLDYFGDSFDLWGQGTTVTVSS VL: DIQMTQSPSSLSASVGDRVTITCRASQLVSSAVAWYQQKPGKAPKLLIYWASARHTGVPSRFSGSGSGTDFTLTISSLQPEDFATYYCQQHYKTPFTFGQGTKLEIKRTVAAPSVFIFPPDIQMTQSPSSLSASVGDRVTITCRASQGIRNYLNWYQQKPGKAPKLLIYYASNLEVGVPSRFSGSGSGTDYTLTISSLQPEDFATYYCQQDNRFPYTFGGGTKVEIKR"
0.34 nM,5.4e-05 s⁻¹,160000 M⁻¹ s⁻¹,"DVD3156 (bispecific antibody, IgG1, DVD-Ig; wt hIgG1 + kappa constants) VH: EVQLVESGGGLVQPGGSLRLSCAASGFTFSNYGVEWVRQAPGKGLEWVSGIWADGSTHYADTVKSRFTISRDNSKNTLYLQMNSLRAEDTAVYYCAREWQHGPVAYWGQGTLVTVSSASTKGPEVQLVQSGAEVKKPGASVKVSCKASGYTFTSYWMHWVRQAPGQGLEWIGNINPKGGSNIYNEKFQGRVTMTRDTSISTAYMELSRLRSDDTAVYYCARLDYFGDSFDLWGQGTTVTVSS VL: DIQMTQSPSSLSASVGDRVTITCKASQLVSSAVAWYQQKPGKAPKLLIYWASTLHTGVPSRFSGSGSGTDFTLTISSLQPEDFATYYCQQHYRTPFTFGQGTKLEIKRTVAAPSVFIFPPDIQMTQSPSSLSASVGDRVTITCRASQGIRNYLNWYQQKPGKAPKLLIYYASNLEVGVPSRFSGSGSGTDYTLTISSLQPEDFATYYCQQDNRFPYTFGGGTKVEIKR"
0.057 nM,6.7e-05 s⁻¹,1.2e+06 M⁻¹ s⁻¹,"DVD3158 (bispecific antibody, IgG1, DVD-Ig; wt hIgG1 + kappa constants) VH: EVQLVQSGAEVKKPGASVKVSCKASGYTFTSYWMHWVRQAPGQGLEWIGNINPKGGSNIYNEKFQGRVTMTRDTSISTAYMELSRLRSDDTAVYYCARLDYFGDSFDLWGQGTTVTVSSGGGGSGGGGSEVQLVESGGGLVQPGGSLRLSCAASGFTFSNYGVEWVRQAPGKGLEWVSGIWADGSTHYADTVKSRFTISRDNSKNTLYLQMNSLRAEDTAVYYCAREWQHGPVAYWGQGTLVTVSS VL: DIQMTQSPSSLSASVGDRVTITCRASQGIRNYLNWYQQKPGKAPKLLIYYASNLEVGVPSRFSGSGSGTDYTLTISSLQPEDFATYYCQQDNRFPYTFGGGTKVEIKRGGSGGGGSGDIQMTQSPSSLSASVGDRVTITCKASQLVSSAVAWYQQKPGKAPKLLIYWASTLHTGVPSRFSGSGSGTDFTLTISSLQPEDFATYYCQQHYRTPFTFGQGTKLEIKR"
< 0.0077 nM,< 1e-06 s⁻¹,130000 M⁻¹ s⁻¹,"DVD3147 (bispecific antibody, IgG1, DVD-Ig; wt hIgG1 + kappa constants) VH: EVQLVESGGGLVQPGGSLRLSCAASGFTFSNYGVTWVRQAPGKGLEWVSMIWADGSTHYASSVKGRFTISRDNSKNTLYLQMNSLRAEDTAVYYCAREWQHGPVAYWGQGTLVTVSSASTKGPSVFPLAPEVQLVQSGAEVKKPGASVKVSCKASGYTFTSYWMHWVRQAPGQGLEWIGNINPKGGSNIYNEKFQGRVTMTRDTSISTAYMELSRLRSDDTAVYYCARLDYFGDSFDLWGQGTTVTVSS VL: DIQMTQSPSSLSASVGDRVTITCRASQLVSSAVAWYQQKPGKAPKLLIYWASARHTGVPSRFSGSGSGTDFTLTISSLQPEDFATYYCQQHYKTPFTFGQGTKLEIKRTVAAPDIQMTQSPSSLSASVGDRVTITCRASQGIRNYLNWYQQKPGKAPKLLIYYASNLEVGVPSRFSGSGSGTDYTLTISSLQPEDFATYYCQQDNRFPYTFGGGTKVEIKR"
0.0095 nM,1.1e-06 s⁻¹,110000 M⁻¹ s⁻¹,"DVD3157 (bispecific antibody, IgG1, DVD-Ig; wt hIgG1 + kappa constants) VH: EVQLVESGGGLVQPGGSLRLSCAASGFTFSNYGVEWVRQAPGKGLEWVSGIWADGSTHYADTVKSRFTISRDNSKNTLYLQMNSLRAEDTAVYYCAREWQHGPVAYWGQGTLVTVSSASTKGPSVFPLAPEVQLVQSGAEVKKPGASVKVSCKASGYTFTSYWMHWVRQAPGQGLEWIGNINPKGGSNIYNEKFQGRVTMTRDTSISTAYMELSRLRSDDTAVYYCARLDYFGDSFDLWGQGTTVTVSS VL: DIQMTQSPSSLSASVGDRVTITCKASQLVSSAVAWYQQKPGKAPKLLIYWASTLHTGVPSRFSGSGSGTDFTLTISSLQPEDFATYYCQQHYRTPFTFGQGTKLEIKRTVAAPDIQMTQSPSSLSASVGDRVTITCRASQGIRNYLNWYQQKPGKAPKLLIYYASNLEVGVPSRFSGSGSGTDYTLTISSLQPEDFATYYCQQDNRFPYTFGGGTKVEIKR"

# Target: Recombinant Human IL-13 (human, UniProt P35225 35-146, limits assumed)
# Assay: cell-based or functional assay
# Target sequence in this assay (P35225 35-146 limits assumed): as the sequence (P35225 35-146 limits assumed) above
row,IL-13 Neutralization Assay IC50,Binder
1,0.068 nM,"AB398 (antibody, V domains shown) VH: EVQLVQSGAEVKKPGASVKVSCKASGYTFTTYGVSWVRQAPGQGLEWMGEIYPGNYNTYYNEKFRGRVTMTTDTSTSTAYMELRSLRSDDTAVYYCARWRTSYFSDYGYFDYWGQGTTVTVSS VL: DVVMTQSPLSLPVTLGQPASISCRSSQSLVHSHGNTYLHWYQQRPGQSPRLLIYTVSNRFSGVPDRFSGSGSGTDFTLKISRVEAEDVGVYYCSQSTHVPYTFGGGTKVEIKR"
2,0.066 nM,"AB397 (antibody, V domains shown) VH: EVTLRESGPGLVKPTQTLTLTCTLYGFSLSTSDMGVDWIRQPPGKGLEWLAHIWWDDVKRYNPALKSRLTISKDTSKNQVVLKLTSVDPVDTATYYCARTVSSGYIYYAMDYWGQGTLVTVSS VL: DIQMTQSPSSLSASVGDRVTISCRASQDIRNYLNWYQQKPGKAPKLLIFYTSKLHSGVPSRFSGSGSGTDYTLTISSLQPEDIATYYCQQGLTPPLTFGGGTKVEIKR"
3,0.131 nM,"DVD2692 (bispecific antibody, human IgG1, kappa) heavy: not shown light: DIQMTQSPSSLSASVGDRVTISCRASQDIRNYLNWYQQKPGKAPKLLIFYTSKLHSGVPSRFSGSGSGTDYTLTISSLQPEDIATYYCQQGLTPPLTFGGGTKVEIKRTVAAPDIQMTQSPSSLSASVGDRVTITCRASQLVSSAVAWYQQKPGKAPKLLIYWASARHTGVPSRFSGSGSGTDFTLTISSLQPEDFATYYCQQHYKTPFTFGQGTKLEIKRTVAAPSVFIFPPSDEQLKSGTASVVCLLNNFYPREAKVQWKVDNALQSGNSQESVTEQDSKDSTYSLSSTLTLSKADYEKHKVYACEVTHQGLSSPVTKSFNRGEC"
4,0.064 nM,"DVD2742 (bispecific antibody, human IgG1, kappa) heavy: not shown light: DIQMTQSPSSLSASVGDRVTISCRASQDIRNYLNWYQQKPGKAPKLLIFYTSKLHSGVPSRFSGSGSGTDYTLTISSLQPEDIATYYCQQGLTPPLTFGGGTKVEIKRTVAAPDIQMTQSPSSLSASVGDRVTITCKASQLVSSAVAWYQQKPGKAPKLLIYWASTLHTGVPSRFSGSGSGTDFTLTISSLQPEDFATYYCQQHYRTPFTFGQGTKLEIKRTVAAPSVFIFPPSDEQLKSGTASVVCLLNNFYPREAKVQWKVDNALQSGNSQESVTEQDSKDSTYSLSSTLTLSKADYEKHKVYACEVTHQGLSSPVTKSFNRGEC"
5,0.132 nM,"DVD2739 (bispecific antibody, human IgG1, kappa) heavy: not shown light: DIQMTQSPSSLSASVGDRVTISCRASQDIRNYLNWYQQKPGKAPKLLIFYTSKLHSGVPSRFSGSGSGTDYTLTISSLQPEDIATYYCQQGLTPPLTFGGGTKVEIKRTVAAPDIQMTQSPSSLSASVGDRVTITCKASQLVSSAVAWYQQKPGKAPKLLIYWASTLHTGVPSRFSGSGSGTDFTLTISSLQPEDFATYYCQQHYRTPFTFGQGTKLEIKRTVAAPSVFIFPPSDEQLKSGTASVVCLLNNFYPREAKVQWKVDNALQSGNSQESVTEQDSKDSTYSLSSTLTLSKADYEKHKVYACEVTHQGLSSPVTKSFNRGEC"
6,0.105 nM,"DVD2691 (bispecific antibody, human IgG1, kappa) heavy: not shown light: DIQMTQSPSSLSASVGDRVTISCRASQDIRNYLNWYQQKPGKAPKLLIFYTSKLHSGVPSRFSGSGSGTDYTLTISSLQPEDIATYYCQQGLTPPLTFGGGTKVEIKRTVAAPSVFIFPPDIQMTQSPSSLSASVGDRVTITCRASQLVSSAVAWYQQKPGKAPKLLIYWASARHTGVPSRFSGSGSGTDFTLTISSLQPEDFATYYCQQHYKTPFTFGQGTKLEIKRTVAAPSVFIFPPSDEQLKSGTASVVCLLNNFYPREAKVQWKVDNALQSGNSQESVTEQDSKDSTYSLSSTLTLSKADYEKHKVYACEVTHQGLSSPVTKSFNRGEC"
7,0.118 nM,"DVD2741 (bispecific antibody, human IgG1, kappa) heavy: not shown light: DIQMTQSPSSLSASVGDRVTISCRASQDIRNYLNWYQQKPGKAPKLLIFYTSKLHSGVPSRFSGSGSGTDYTLTISSLQPEDIATYYCQQGLTPPLTFGGGTKVEIKRTVAAPSVFIFPPDIQMTQSPSSLSASVGDRVTITCKASQLVSSAVAWYQQKPGKAPKLLIYWASTLHTGVPSRFSGSGSGTDFTLTISSLQPEDFATYYCQQHYRTPFTFGQGTKLEIKRTVAAPSVFIFPPSDEQLKSGTASVVCLLNNFYPREAKVQWKVDNALQSGNSQESVTEQDSKDSTYSLSSTLTLSKADYEKHKVYACEVTHQGLSSPVTKSFNRGEC"
8,0.149 nM,"DVD2738 (bispecific antibody, human IgG1, kappa) heavy: not shown light: DIQMTQSPSSLSASVGDRVTISCRASQDIRNYLNWYQQKPGKAPKLLIFYTSKLHSGVPSRFSGSGSGTDYTLTISSLQPEDIATYYCQQGLTPPLTFGGGTKVEIKRGGSGGGGSGDIQMTQSPSSLSASVGDRVTITCKASQLVSSAVAWYQQKPGKAPKLLIYWASTLHTGVPSRFSGSGSGTDFTLTISSLQPEDFATYYCQQHYRTPFTFGQGTKLEIKRTVAAPSVFIFPPSDEQLKSGTASVVCLLNNFYPREAKVQWKVDNALQSGNSQESVTEQDSKDSTYSLSSTLTLSKADYEKHKVYACEVTHQGLSSPVTKSFNRGEC"
